Test results reported in patent US20100291638.

Columns and labels:
[1] = system: T1, DNA polymerase 3173 (uncultured hot spring virus (Octopus Spring)); conditions: dNTP incorporation, 60 C, 2 mM MgSO4; background <100 cpm
T1 sequence: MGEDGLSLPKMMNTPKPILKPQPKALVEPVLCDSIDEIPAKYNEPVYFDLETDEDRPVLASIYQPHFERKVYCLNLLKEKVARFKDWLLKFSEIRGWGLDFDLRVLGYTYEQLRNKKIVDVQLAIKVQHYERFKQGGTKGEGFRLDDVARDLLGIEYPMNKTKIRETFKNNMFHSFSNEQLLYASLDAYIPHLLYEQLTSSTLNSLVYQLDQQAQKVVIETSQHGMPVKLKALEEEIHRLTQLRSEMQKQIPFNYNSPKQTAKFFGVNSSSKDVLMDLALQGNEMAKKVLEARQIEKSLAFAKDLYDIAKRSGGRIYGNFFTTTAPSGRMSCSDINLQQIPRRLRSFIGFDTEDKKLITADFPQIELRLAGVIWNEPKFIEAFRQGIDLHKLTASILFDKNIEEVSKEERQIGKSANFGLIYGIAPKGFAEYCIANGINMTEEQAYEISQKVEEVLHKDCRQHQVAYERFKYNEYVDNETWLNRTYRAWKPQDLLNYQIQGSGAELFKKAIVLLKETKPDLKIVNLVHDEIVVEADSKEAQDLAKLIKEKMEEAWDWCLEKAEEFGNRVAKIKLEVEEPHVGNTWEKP

[2] = system: T2, DNA polymerase clone 74 (uncultured hot spring virus (Great Boiling Spring)); conditions: dNTP incorporation; background <500
T2 sequence: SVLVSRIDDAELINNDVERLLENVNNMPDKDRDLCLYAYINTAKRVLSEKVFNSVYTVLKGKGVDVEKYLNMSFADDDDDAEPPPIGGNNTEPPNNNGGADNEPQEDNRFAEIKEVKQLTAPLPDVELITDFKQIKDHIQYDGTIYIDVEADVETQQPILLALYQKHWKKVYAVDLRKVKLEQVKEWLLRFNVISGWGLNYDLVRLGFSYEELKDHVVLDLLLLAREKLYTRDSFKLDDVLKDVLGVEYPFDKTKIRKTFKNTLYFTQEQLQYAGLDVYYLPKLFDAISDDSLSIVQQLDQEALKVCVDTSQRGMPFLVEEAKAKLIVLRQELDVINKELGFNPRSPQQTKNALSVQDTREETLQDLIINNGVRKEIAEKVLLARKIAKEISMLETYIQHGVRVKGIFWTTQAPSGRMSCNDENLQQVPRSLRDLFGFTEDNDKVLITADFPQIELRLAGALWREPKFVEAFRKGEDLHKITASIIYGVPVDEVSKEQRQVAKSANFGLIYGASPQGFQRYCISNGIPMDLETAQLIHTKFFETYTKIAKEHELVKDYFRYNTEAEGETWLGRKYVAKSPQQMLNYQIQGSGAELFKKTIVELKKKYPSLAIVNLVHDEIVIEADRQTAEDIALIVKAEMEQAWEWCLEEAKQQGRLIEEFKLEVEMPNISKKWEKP

activated calf thymus DNA was tested, and the activity [1] was greater than 1000 cpm and the activity [2] was 47400 cpm.
